{
  "source": "patent US10363306B2",
  "about": "“Cytokines and neuroantigens for treatment of immune disorders” (East Carolina University, priority 2009, dated 2019)",
  "molecules": {"B1": {"name": "IFNβ: Rat interferon beta cytokine with enterokinase linker and 6-histidine sequence, no neuroantigen (protein)", "chain": "IDYKQLQFRQSTSIRTCQKLLRQLNGRLNLSYRTDFKIPMEVMHPSQMEKSYTAFAIQVMLQNVFLVFRSNFSSTGWNETIVESLLDELHQQTELLEIILKEKQEERLTWVTSTTTLGLKSYYWRVQRYLKDKKYNSYAWMVVRAEVFRNFSIILRLNRNFQNGDDDDKGHHHHHH"}},
  "key": {"EAE in Lewis rats [1]": {"test_system": "EAE in Lewis rats", "test": "Treatment of ongoing EAE after disease onset", "type": "in vivo"}, "EAE in Lewis rats [2]": {"test_system": "EAE in Lewis rats", "test": "Prevention of EAE by pretreatment before encephalitogenic challenge", "type": "in vivo", "conditions": "HEK293-derived"}, "[3]": {"conditions": "Table 6 Experiment 1, s.c. day 9 (1 nmole), day 10 (1 nmole), day 12 (0.5 nmole) after DHFR-NAg in CFA day 0"}, "[4]": {"conditions": "Table 6 Experiment 2, 1 nmole s.c. on days 9, 10, 12, and 14 after DHFR-NAg in CFA day 0"}, "[5]": {"conditions": "Table 6 Experiments 1 & 2 compiled, treatment from day 9 after onset"}, "[6]": {"conditions": "Table 7 Experiment 2, 1 nmole s.c. days 9, 10, 12, and 14, severe EAE = scores from 1.0 to 3.0"}, "[7]": {"conditions": "Table 7 Experiment 2, 1 nmole s.c. in saline days 9, 10, 12, and 14, IFNβ + NAg as mixture"}, "[8]": {"conditions": "Table 7 Experiment 3, 1 nmole s.c. days 9, 10, and 12, severe EAE = scores from 1.0 to 3.0"}, "[9]": {"conditions": "Table 7 Experiment 3, 1 nmole s.c. in saline days 9, 10, and 12, IFNβ + NAg as mixture"}, "[10]": {"conditions": "Table 7 Experiments 1-3 compiled, 1 nmole s.c. after onset"}, "[11]": {"conditions": "Table 7 Experiments 1-3 compiled, severe EAE = scores from 1.0 to 3.0"}, "[12]": {"conditions": "Table 4 Exp. 1 & 2 combined, 1 nmole days −21, −14, −7, challenge day 0"}, "[13]": {"conditions": "Table 4 Exp. 1, 1 nmole in saline days −21, −14, −7, challenge DHFR-NAg in CFA day 0"}, "[14]": {"conditions": "Table 4 Exp. 2, 1 nmole in saline days −21, −14, −7, challenge DHFR-NAg in CFA day 0"}},
  "data": [
    {"molecule": "B1", "values": [
      {"measurement": "% mean maximal weight loss", "setting": "EAE in Lewis rats [1]; [3]", "result": "10.6 ± 5.3", "unit": "%"},
      {"measurement": "Incidence of severe EAE", "setting": "EAE in Lewis rats [1]; [3]", "result": "5 of 6"},
      {"measurement": "Mean # days with severe EAE", "setting": "EAE in Lewis rats [1]; [3]", "result": "1.4 ± 1.1", "unit": "days"},
      {"measurement": "Mean cum. score", "setting": "EAE in Lewis rats [1]; [3]", "result": "11.1 ± 5.1"},
      {"measurement": "Mean maximal score", "setting": "EAE in Lewis rats [1]; [3]", "result": "2.2 ± 0.8"},
      {"measurement": "Median cum. score", "setting": "EAE in Lewis rats [1]; [3]", "result": 10.3},
      {"measurement": "Median maximal score", "setting": "EAE in Lewis rats [1]; [3]", "result": 2.0},
      {"measurement": "% mean maximal weight loss", "setting": "EAE in Lewis rats [1]; [4]", "result": "20.7 ± 1.9", "unit": "%"},
      {"measurement": "Incidence of severe EAE", "setting": "EAE in Lewis rats [1]; [4]", "result": "3 of 5"},
      {"measurement": "Mean # days with severe EAE", "setting": "EAE in Lewis rats [1]; [4]", "result": "1.3 ± 1.4", "unit": "days"},
      {"measurement": "Mean cum. score", "setting": "EAE in Lewis rats [1]; [4]", "result": "11.2 ± 5.9"},
      {"measurement": "Mean maximal score", "setting": "EAE in Lewis rats [1]; [4]", "result": "2.0 ± 1.0"},
      {"measurement": "Median cum. score", "setting": "EAE in Lewis rats [1]; [4]", "result": 8.3},
      {"measurement": "Median maximal score", "setting": "EAE in Lewis rats [1]; [4]", "result": 2.0},
      {"measurement": "% mean maximal weight loss", "setting": "EAE in Lewis rats [1]; [5]", "result": "15.2 ± 6.5", "unit": "%"},
      {"measurement": "Incidence of severe EAE", "setting": "EAE in Lewis rats [1]; [5]", "result": "8 of 11"},
      {"measurement": "Mean # days with severe EAE", "setting": "EAE in Lewis rats [1]; [5]", "result": "1.4 ± 1.2", "unit": "days"},
      {"measurement": "Mean cum. score", "setting": "EAE in Lewis rats [1]; [5]", "result": "11.1 ± 5.2"},
      {"measurement": "Mean maximal score", "setting": "EAE in Lewis rats [1]; [5]", "result": "2.1 ± 0.8"},
      {"measurement": "Median cum. score", "setting": "EAE in Lewis rats [1]; [5]", "result": 8.3},
      {"measurement": "Median maximal score", "setting": "EAE in Lewis rats [1]; [5]", "result": 2.0},
      {"measurement": "Incidence of severe EAE", "setting": "EAE in Lewis rats [1]; [6]", "result": "6 of 6"},
      {"measurement": "Mean # days with severe EAE (A-P)", "setting": "EAE in Lewis rats [1]; [6]", "result": "1.9 ± 2.1", "unit": "days"},
      {"measurement": "Mean cum. score", "setting": "EAE in Lewis rats [1]; [7]", "result": "7.2 ± 3.8"},
      {"measurement": "Mean maximal score", "setting": "EAE in Lewis rats [1]; [7]", "result": "2.2 ± 1.0"},
      {"measurement": "Median cum. score", "setting": "EAE in Lewis rats [1]; [7]", "result": 5.9},
      {"measurement": "Median maximal score", "setting": "EAE in Lewis rats [1]; [7]", "result": 2.5},
      {"measurement": "Incidence of severe EAE", "setting": "EAE in Lewis rats [1]; [8]", "result": "2 of 7"},
      {"measurement": "Mean # days with severe EAE (A-P)", "setting": "EAE in Lewis rats [1]; [8]", "result": "0.4 ± 0.6", "unit": "days"},
      {"measurement": "Mean cum. score", "setting": "EAE in Lewis rats [1]; [9]", "result": "3.1 ± 2.2"},
      {"measurement": "Mean maximal score", "setting": "EAE in Lewis rats [1]; [9]", "result": "1.0 ± 1.1"},
      {"measurement": "Median cum. score", "setting": "EAE in Lewis rats [1]; [9]", "result": 2.5},
      {"measurement": "Median maximal score", "setting": "EAE in Lewis rats [1]; [9]", "result": 0.5},
      {"measurement": "Mean cum. score", "setting": "EAE in Lewis rats [1]; [10]", "result": "5.0 ± 3.6"},
      {"measurement": "Mean maximal score", "setting": "EAE in Lewis rats [1]; [10]", "result": "1.5 ± 1.2"},
      {"measurement": "Median cum. score", "setting": "EAE in Lewis rats [1]; [10]", "result": 4.0},
      {"measurement": "Median maximal score", "setting": "EAE in Lewis rats [1]; [10]", "result": 1.0},
      {"measurement": "Incidence of severe EAE", "setting": "EAE in Lewis rats [1]; [11]", "result": "8 of 13"},
      {"measurement": "Mean # days with severe EAE (A-P)", "setting": "EAE in Lewis rats [1]; [11]", "result": "1.1 ± 1.7", "unit": "days"},
      {"measurement": "course of EAE during treatment", "setting": "EAE in Lewis rats [1]; treatment after onset, disease rebound after cessation on day 12 or day 14", "result": "initial suppression of EAE"},
      {"measurement": "Incidence of EAE", "setting": "EAE in Lewis rats [2]; [12]", "result": "8 of 8"},
      {"measurement": "Incidence of severe EAE", "setting": "EAE in Lewis rats [2]; [12]", "result": "8 of 8"},
      {"measurement": "Mean # days with severe EAE", "setting": "EAE in Lewis rats [2]; [12]", "result": "3.4 ± 0.8", "unit": "days"},
      {"measurement": "Mean cumulative score", "setting": "EAE in Lewis rats [2]; [12]", "result": "22.8 ± 4.0"},
      {"measurement": "Mean maximal score", "setting": "EAE in Lewis rats [2]; [12]", "result": "2.9 ± 0.4"},
      {"measurement": "Median cumulative score", "setting": "EAE in Lewis rats [2]; [12]", "result": 22.5},
      {"measurement": "Median maximal score", "setting": "EAE in Lewis rats [2]; [12]", "result": 3.0},
      {"measurement": "Mean # days with severe EAE", "setting": "EAE in Lewis rats [2]; Table 4 Exp. 1, 1 nmole days −21, −14, −7, challenge day 0", "result": "3.0 ± 0.4", "unit": "days"},
      {"measurement": "Incidence of severe EAE", "setting": "EAE in Lewis rats [2]; Table 4 Exp. 1, 1 nmole days −21, −14, −7, challenge day 0, severe = partial or full hindlimb paralysis", "result": "4 of 4"},
      {"measurement": "Incidence of EAE", "setting": "EAE in Lewis rats [2]; [13]", "result": "4 of 4"},
      {"measurement": "Mean cumulative score", "setting": "EAE in Lewis rats [2]; [13]", "result": "22.0 ± 2.6"},
      {"measurement": "Mean maximal score", "setting": "EAE in Lewis rats [2]; [13]", "result": "3.0 ± 0.0"},
      {"measurement": "Median cumulative score", "setting": "EAE in Lewis rats [2]; [13]", "result": 21.3},
      {"measurement": "Median maximal score", "setting": "EAE in Lewis rats [2]; [13]", "result": 3.0},
      {"measurement": "Mean # days with severe EAE", "setting": "EAE in Lewis rats [2]; Table 4 Exp. 2, 1 nmole days −21, −14, −7, challenge day 0", "result": "3.9 ± 0.9", "unit": "days"},
      {"measurement": "Incidence of severe EAE", "setting": "EAE in Lewis rats [2]; Table 4 Exp. 2, 1 nmole days −21, −14, −7, challenge day 0, severe = partial or full hindlimb paralysis", "result": "4 of 4"},
      {"measurement": "Incidence of EAE", "setting": "EAE in Lewis rats [2]; [14]", "result": "4 of 4"},
      {"measurement": "Mean cumulative score", "setting": "EAE in Lewis rats [2]; [14]", "result": "23.7 ± 5.3"},
      {"measurement": "Mean maximal score", "setting": "EAE in Lewis rats [2]; [14]", "result": "2.8 ± 0.5"},
      {"measurement": "Median cumulative score", "setting": "EAE in Lewis rats [2]; [14]", "result": 23.6},
      {"measurement": "Median maximal score", "setting": "EAE in Lewis rats [2]; [14]", "result": 3.0}
    ]}
  ]
}
